Laboratory results published in patent publication US12060424 (AMUNIX PHARMACEUTICALS, dated 2024).

Assays:
[1] = molecular target: human CD3 on cells (CD3+ Jurkat cells; purified human CD3 positive T cells) (human, UniProt P07766 23-207); assay: cell-based or functional assay
[2] = molecular target: T1, Fc-tagged EpCAM (R&D Systems, cat #960-EP-050), human, coupled to SPR chip (human, UniProt P16422 24-265); assay: SPR (Biacore 3000), Fc-tagged EpCAM coupled to chip, ProTIA as analyte at 5-6 concentrations
T1 construct: Bought reagent; also called human EpCAM; EpCAM chip; not shown: Fc tag of the bought reagent
T1 sequence (looked up): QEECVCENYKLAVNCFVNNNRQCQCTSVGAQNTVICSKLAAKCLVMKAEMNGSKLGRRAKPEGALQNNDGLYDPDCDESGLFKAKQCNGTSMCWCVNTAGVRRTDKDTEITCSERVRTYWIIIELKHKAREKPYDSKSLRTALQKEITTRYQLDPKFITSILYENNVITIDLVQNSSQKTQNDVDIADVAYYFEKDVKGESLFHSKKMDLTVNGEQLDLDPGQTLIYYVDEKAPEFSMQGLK

[3] = molecular target: recombinant human CD3 epsilon & delta (rhCD3ε & δ), Creative BioMart cat #CD3E&CD3D-219H (human) (UniProt P07766); assay: sandwich ELISA: rhCD3ε & δ coated, peroxidase-conjugated protein L detection
[4] = molecular target: T2, recombinant human EpCAM (rhEpCAM), coated on ELISA plate (human, UniProt P16422 24-265); assay: sandwich ELISA: rhEpCAM coated, peroxidase-conjugated protein L detection
T2 construct: Bought reagent
T2 sequence (looked up): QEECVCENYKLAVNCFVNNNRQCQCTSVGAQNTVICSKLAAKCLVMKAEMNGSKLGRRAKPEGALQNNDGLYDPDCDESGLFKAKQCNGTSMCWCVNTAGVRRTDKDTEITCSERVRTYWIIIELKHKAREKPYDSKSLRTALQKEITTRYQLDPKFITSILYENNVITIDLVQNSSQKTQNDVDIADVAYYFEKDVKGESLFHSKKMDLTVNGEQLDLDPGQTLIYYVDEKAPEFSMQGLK

[5] = molecular target: recombinant human CD3 epsilon & delta (rhCD3ε & δ), Creative BioMart cat #CD3E&CD3D-219H (human) (UniProt P07766); assay: SPR (Biacore 3000), His-tagged CD3εδ coupled to chip, ProTIA as analyte at 5-6 concentrations
[6] = molecular target: T3, human EpCAM expressed on cells (CHO cells stably transfected with human EpCAM); EpCAM-positive human tumor … (human, UniProt P16422 24-314); assay: competition flow cytometry on hEp-CHO 4-12B cells
T3 construct: whole, on cells; also called EpCAM-CHO; hEp-CHO 4-12B
T3 sequence (looked up): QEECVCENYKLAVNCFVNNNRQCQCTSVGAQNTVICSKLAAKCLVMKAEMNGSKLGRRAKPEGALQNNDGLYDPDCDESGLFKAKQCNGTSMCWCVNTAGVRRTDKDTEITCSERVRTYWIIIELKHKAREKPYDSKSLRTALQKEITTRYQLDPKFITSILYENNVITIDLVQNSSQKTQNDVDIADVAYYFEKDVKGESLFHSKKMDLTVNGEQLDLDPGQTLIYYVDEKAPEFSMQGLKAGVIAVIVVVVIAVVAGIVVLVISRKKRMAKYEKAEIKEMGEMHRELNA

recombinant human CD3 epsilon & delta (rhCD3ε & δ), Creative BioMart cat #CD3E&CD3D-219H (human), sequence (P07766 23-126, stated change not applied, chain 1 of 2): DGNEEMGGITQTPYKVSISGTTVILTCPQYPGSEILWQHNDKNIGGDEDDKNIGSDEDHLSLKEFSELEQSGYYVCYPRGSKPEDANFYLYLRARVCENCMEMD
recombinant human CD3 epsilon & delta (rhCD3ε & δ), Creative BioMart cat #CD3E&CD3D-219H (human), sequence (P04234 22-105, stated change not applied, chain 2 of 2, further chain): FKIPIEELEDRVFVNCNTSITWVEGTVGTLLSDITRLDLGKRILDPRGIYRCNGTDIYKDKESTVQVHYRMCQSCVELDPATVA
human CD3 on cells (CD3+ Jurkat cells; purified human CD3 positive T cells), sequence (P07766 23-207): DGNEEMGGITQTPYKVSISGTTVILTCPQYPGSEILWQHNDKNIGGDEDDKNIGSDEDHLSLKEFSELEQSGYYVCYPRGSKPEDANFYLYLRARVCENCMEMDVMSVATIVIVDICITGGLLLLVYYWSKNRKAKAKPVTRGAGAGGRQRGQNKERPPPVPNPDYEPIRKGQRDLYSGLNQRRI

B1: AC1476 aEpCAM-aCD3-BSRS1-XTEN_AE864-His(6), protease-untreated (uncleaved) anti-EpCAM×anti-CD3 ProTIA (bispecific antibody)
chain: DIQMTQSPSSLSASVGDRVTITCRSTKSLLHSNGITYLYWYQQKPGKAPKLLIYQMSNLASGVPSRFSSSGSGTDFTLTISSLQPEDFATYYCAQNLEIPRTFGQGTKVEIKGATPPETGAETESPGETTGGSAESEPPGEGQVQLVQSGPGLVQPGGSVRISCAASGYTFTNYGMNWVKQAPGKGLEWMGWINTYTGESTYADSFKGRFTFSLDTSASAAYLQINSLRAEDTAVYYCARFAIKGDYWGQGTLLTVSSGGGGSDIQMTQSPSSLSASVGDRVTITCRASQDIRNYLNWYQQKPGKAPKLLIYYTSRLESGVPSRFSGSGSGTDYTLTISSLQPEDFATYYCQQGNTLPWTFGQGTKVEIKGATPPETGAETESPGETTGGSAESEPPGEGEVQLVESGGGLVQPGGSLRLSCAASGYSFTGYTMNWVRQAPGKGLEWVALINPYKGVSTYNQKFKDRFTISVDKSKNTAYLQMNSLRAEDTAVYYCARSGYYGDSDWYFDVWGQGTLVTVSSGTAEAASASGLSGRSDNHSPLGLAGSPGSPAGSPTSTEEGTSESATPESGPGTSTEPSEGSAPGSPAGSPTSTEEGTSTEPSEGSAPGTSTEPSEGSAPGTSESATPESGPGSEPATSGSETPGSEPATSGSETPGSPAGSPTSTEEGTSESATPESGPGTSTEPSEGSAPGTSTEPSEGSAPGSPAGSPTSTEEGTSTEPSEGSAPGTSTEPSEGSAPGTSESATPESGPGTSTEPSEGSAPGTSESATPESGPGSEPATSGSETPGTSTEPSEGSAPGTSTEPSEGSAPGTSESATPESGPGTSESATPESGPGSPAGSPTSTEEGTSESATPESGPGSEPATSGSETPGTSESATPESGPGTSTEPSEGSAPGTSTEPSEGSAPGTSTEPSEGSAPGTSTEPSEGSAPGTSTEPSEGSAPGTSTEPSEGSAPGSPAGSPTSTEEGTSTEPSEGSAPGTSESATPESGPGSEPATSGSETPGTSESATPESGPGSEPATSGSETPGTSESATPESGPGTSTEPSEGSAPGTSESATPESGPGSPAGSPTSTEEGSPAGSPTSTEEGSPAGSPTSTEEGTSESATPESGPGTSTEPSEGSAPGTSESATPESGPGSEPATSGSETPGTSESATPESGPGSEPATSGSETPGTSESATPESGPGTSTEPSEGSAPGSPAGSPTSTEEGTSESATPESGPGSEPATSGSETPGTSESATPESGPGSPAGSPTSTEEGSPAGSPTSTEEGTSTEPSEGSAPGTSESATPESGPGTSESATPESGPGTSESATPESGPGSEPATSGSETPGSEPATSGSETPGSPAGSPTSTEEGTSTEPSEGSAPGTSTEPSEGSAPGSEPATSGSETPGTSESATPESGPGTSTEPSEGSAPGHHHHHH
notes: Single chain: anti-EpCAM scFv, anti-CD3 scFv, release segment BSRS-1, XTEN864, His6; also called ProTIA-X
[1]
  EC50, LDH release cytotoxicity, purified human CD3 positive T cells with OVCAR-3 cells 5:1: 0.0007 nM
  EC50, LDH release cytotoxicity, purified human CD3 positive T cells with SK-OV-3 cells 5:1: 0.134 nM
[2]
  Kd: 11.4 nM
[3]
  EC50: 1.8 nM
  fold hindrance of binding by XTEN864 (against the cleaved and released anti-CD3scFv portion): 5.8 fold
[4]
  EC50: 0.28 nM
  fold hindrance of binding by XTEN864 (against the protease-treated ProTIA): ≥ 2.3 fold
[5]
  Kd: 15.3 nM

B2: AC1952 anti-human EpCAM×anti-human CD3 ProTIA with two XTEN, RSR-2295, uncleaved (bispecific antibody)
chain: SPAGSPTSTEEGTSESATPESGPGTSTEPSEGSAPGTSESATPESGPGSEPATSGSETPGTSESATPESGPGSEPATSGSETPGTSESATPESGPGTSTEPSEGSAPGSPAGSPTSTEEGTSESATPESGPGSEPATSGSETPGTSESATPESGPGSPAGSPTSTEEGSPAGSPTSTEEGTSTEPSEGSAPGTSESATPESGPGTSESATPESGPGTSESATPESGPGSEPATSGSETPGSEPATSGSETPGSPAGSPTSTEEGTSTEPSEGSAPGTSTEPSEGSAPGGSAPEAGRSANHTPAGLTGPATSGSETPGTDIQMTQSPSSLSASVGDRVTITCRSTKSLLHSNGITYLYWYQQKPGKAPKLLIYQMSNLASGVPSRFSSSGSGTDFTLTISSLQPEDFATYYCAQNLEIPRTFGQGTKVEIKGATPPETGAETESPGETTGGSAESEPPGEGQVQLVQSGPGLVQPGGSVRISCAASGYTFTNYGMNWVKQAPGKGLEWMGWINTYTGESTYADSFKGRFTFSLDTSASAAYLQINSLRAEDTAVYYCARFAIKGDYWGQGTLLTVSSGGGGSELVVTQEPSLTVSPGGTVTLTCRSSTGAVTTSNYANWVQQKPGQAPRGLIGGTNKRAPGTPARFSGSLLGGKAALTLSGVQPEDEAEYYCALWYSNLWVFGGGTKLTVLGATPPETGAETESPGETTGGSAESEPPGEGEVQLLESGGGLVQPGGSLKLSCAASGFTFNTYAMNWVRQAPGKGLEWVARIRSKYNNYATYYADSVKDRFTISRDDSKNTAYLQMNNLKTEDTAVYYCVRHGNFGNSYVSWFAYWGQGTLVTVSSGTAEAASASGEAGRSANHTPAGLTGPPGSPAGSPTSTEEGTSESATPESGPGTSTEPSEGSAPGSPAGSPTSTEEGTSTEPSEGSAPGTSTEPSEGSAPGTSESATPESGPGSEPATSGSETPGSEPATSGSETPGSPAGSPTSTEEGTSESATPESGPGTSTEPSEGSAPGTSTEPSEGSAPGSPAGSPTSTEEGTSTEPSEGSAPGTSTEPSEGSAPGTSESATPESGPGTSTEPSEGSAPGTSESATPESGPGSEPATSGSETPGTSTEPSEGSAPGTSTEPSEGSAPGTSESATPESGPGTSESATPESGPGSPAGSPTSTEEGTSESATPESGPGSEPATSGSETPGTSESATPESGPGTSTEPSEGSAPGTSTEPSEGSAPGTSTEPSEGSAPGTSTEPSEGSAPGTSTEPSEGSAPGTSTEPSEGSAPGSPAGSPTSTEEGTSTEPSEGSAPGTSESATPESGPGSEPATSGSETPGTSESATPESGPGSEPATSGSETPGTSESATPESGPGTSTEPSEGSAPGTSESATPESGPGSPAGSPTSTEEGSPAGSPTSTEEGSPAGSPTSTEEGTSESATPESGPGTSTEPSEGSAPGTSESATPESGPGSEPATSGSETPGTSESATPESGPGSEPATSGSETPGTSESATPESGPGTSTEPSEGSAPGSPAGSPTSTEEGTSESATPESGPGSEPATSGSETPGTSESATPESGPGSPAGSPTSTEEGSPAGSPTSTEEGTSTEPSEGSAPGTSESATPESGPGTSESATPESGPGTSESATPESGPGSEPATSGSETPGSEPATSGSETPGSPAGSPTSTEEGTSTEPSEGSAPGTSTEPSEGSAPGSEPATSGSETPGTSESATPESGPGTSTEPSEGSAPGHHHHHH
notes: XTEN-RSR2295-anti-EpCAM scFv-anti-CD3 (hCD3.9) scFv-RSR2295-XTEN-His6
[6]
  fold weaker binding affinity than cleaved AC1968: ~100 fold
